Tests used:
[1] = biological target: T1, human MerTK overexpressed on CHO cells (CHO-huMerTK OE) (human, UniProt Q12866 21-999); test: FACS, Dylight650-conjugated antibody titrated on CHO-huMerTK OE cells; Kd fitted in Prism from MFI
T1 construct: also called human MerTK overexpressing CHO cells; not shown: mGFP tag of the lentiviral ORF clone
T1 sequence: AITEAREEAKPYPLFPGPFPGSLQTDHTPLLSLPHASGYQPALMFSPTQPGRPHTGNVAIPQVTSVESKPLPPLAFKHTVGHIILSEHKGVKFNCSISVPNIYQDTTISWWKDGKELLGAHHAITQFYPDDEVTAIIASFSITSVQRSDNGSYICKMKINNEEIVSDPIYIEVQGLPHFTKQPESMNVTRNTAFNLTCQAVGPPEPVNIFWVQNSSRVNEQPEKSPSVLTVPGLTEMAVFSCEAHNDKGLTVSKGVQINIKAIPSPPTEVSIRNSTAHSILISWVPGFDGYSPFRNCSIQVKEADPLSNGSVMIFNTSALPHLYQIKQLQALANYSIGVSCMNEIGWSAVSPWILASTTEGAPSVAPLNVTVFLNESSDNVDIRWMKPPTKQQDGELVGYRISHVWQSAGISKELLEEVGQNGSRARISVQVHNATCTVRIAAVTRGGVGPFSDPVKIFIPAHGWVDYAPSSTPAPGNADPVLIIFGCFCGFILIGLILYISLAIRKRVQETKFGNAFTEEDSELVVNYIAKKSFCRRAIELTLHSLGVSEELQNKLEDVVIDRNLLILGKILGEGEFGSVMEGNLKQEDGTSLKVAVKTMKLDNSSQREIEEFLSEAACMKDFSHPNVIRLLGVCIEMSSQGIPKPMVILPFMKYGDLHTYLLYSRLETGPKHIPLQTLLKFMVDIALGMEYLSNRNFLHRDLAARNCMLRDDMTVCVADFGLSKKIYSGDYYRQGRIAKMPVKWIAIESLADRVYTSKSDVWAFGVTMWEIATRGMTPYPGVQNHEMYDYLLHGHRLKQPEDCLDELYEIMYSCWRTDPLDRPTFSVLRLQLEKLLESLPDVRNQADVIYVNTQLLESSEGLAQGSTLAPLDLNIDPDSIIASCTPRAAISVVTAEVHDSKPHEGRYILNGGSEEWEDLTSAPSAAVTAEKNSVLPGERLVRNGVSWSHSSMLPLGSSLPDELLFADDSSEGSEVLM

[2] = biological target: T2, recombinant murine MerTK extracellular domain (mouse, UniProt Q60805 19-497); test: SPR (Carterra LSA), antibody immobilised on an HC30 chip, MerTK ECD as analyte
T2 construct: The entry starts with the native signal peptide; also called moMerTK; murine MerTK ECD; not shown: tag
T2 sequence: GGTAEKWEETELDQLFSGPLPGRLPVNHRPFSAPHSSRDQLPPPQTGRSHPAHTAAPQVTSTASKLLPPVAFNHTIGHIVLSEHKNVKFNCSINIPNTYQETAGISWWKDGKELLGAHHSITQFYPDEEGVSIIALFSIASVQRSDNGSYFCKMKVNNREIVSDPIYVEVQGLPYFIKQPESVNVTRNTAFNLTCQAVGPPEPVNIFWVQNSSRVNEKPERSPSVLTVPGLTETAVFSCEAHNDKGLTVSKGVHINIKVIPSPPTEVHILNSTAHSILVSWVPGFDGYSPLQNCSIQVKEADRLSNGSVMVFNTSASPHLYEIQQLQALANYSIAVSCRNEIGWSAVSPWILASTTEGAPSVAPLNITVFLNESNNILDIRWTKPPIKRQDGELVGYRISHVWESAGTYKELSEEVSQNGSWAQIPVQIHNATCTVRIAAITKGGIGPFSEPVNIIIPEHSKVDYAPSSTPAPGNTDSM

[3] = biological target: T3, human MerTK on M2c-differentiated human macrophages (human, UniProt Q12866 21-999); test: FACS, Dylight650-conjugated antibody titrated on M2c-differentiated human macrophages; Kd fitted in Prism from MFI
T3 construct: Endogenous MerTK on primary macrophages differentiated from human monocytes with M-CSF
T3 sequence: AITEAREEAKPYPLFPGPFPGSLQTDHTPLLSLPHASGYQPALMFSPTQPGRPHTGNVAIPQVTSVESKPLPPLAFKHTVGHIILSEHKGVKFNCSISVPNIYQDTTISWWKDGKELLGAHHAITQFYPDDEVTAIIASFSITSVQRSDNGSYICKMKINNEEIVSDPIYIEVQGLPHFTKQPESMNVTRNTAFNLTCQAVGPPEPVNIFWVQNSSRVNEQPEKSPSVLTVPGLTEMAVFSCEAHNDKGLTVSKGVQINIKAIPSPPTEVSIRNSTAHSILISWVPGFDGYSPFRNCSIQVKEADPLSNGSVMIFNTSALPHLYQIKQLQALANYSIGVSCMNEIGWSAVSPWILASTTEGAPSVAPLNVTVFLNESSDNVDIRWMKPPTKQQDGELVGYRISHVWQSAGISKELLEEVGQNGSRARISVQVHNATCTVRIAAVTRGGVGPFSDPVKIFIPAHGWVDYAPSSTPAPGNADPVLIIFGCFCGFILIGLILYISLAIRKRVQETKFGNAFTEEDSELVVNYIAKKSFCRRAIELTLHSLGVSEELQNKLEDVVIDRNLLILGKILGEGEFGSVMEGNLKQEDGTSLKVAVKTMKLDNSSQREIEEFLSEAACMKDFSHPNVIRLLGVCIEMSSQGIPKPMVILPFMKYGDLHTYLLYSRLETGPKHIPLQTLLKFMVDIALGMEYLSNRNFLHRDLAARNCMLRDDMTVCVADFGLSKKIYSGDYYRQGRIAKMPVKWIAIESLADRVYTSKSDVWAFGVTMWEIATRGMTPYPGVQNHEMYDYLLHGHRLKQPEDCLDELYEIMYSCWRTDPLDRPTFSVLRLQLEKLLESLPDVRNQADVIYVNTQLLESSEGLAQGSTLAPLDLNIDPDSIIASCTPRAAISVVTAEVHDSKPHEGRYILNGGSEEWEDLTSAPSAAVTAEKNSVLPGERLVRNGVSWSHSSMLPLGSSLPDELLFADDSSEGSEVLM
Text: (§1) Human macrophages were differentiated from human monocytes for 7 days in the presence of human M-CSF, resulting in M2c-differentiated human macrophages. After 7 days, the differentiated human macrophages were harvested (by scraping), resuspended in PBS, and plated on 96-well plates for use. CHO cells overexpressing human MerTK (CHO-huMerTK OE) or M2c-differentiated human macrophages were stained with Dylight650-conjugated monovalent anti-MerTK antibodies or bivalent anti-MerTK antibodies (i.e., anti-MerTK antibodies comprising two full-length heavy chains and two full-length light chains) for 30 min on ice. A range of antibody concentrations were used in these studies to obtain binding curves. […] Cells were fixed and then acquired on a BD FACS Canto II cytometer. The mean fluorescence intensity (MFI) was calculated using FlowJo software and Kd value was calculated using Prism software.

[4] = biological target: T3, human MerTK on M2c-differentiated human …; test: cell-based or functional assay
[5] = biological target: T4, recombinant human MerTK extracellular domain (human, UniProt Q12866 21-505); test: SPR (Carterra LSA), antibody immobilised on an HC30 chip, MerTK ECD as analyte; estimate from a 1:1 fit
T4 construct: The entry starts with the native signal peptide, while the construct used a heterologous signal peptide; also called huMerTK; human MerTK ECD; not shown: tag
T4 sequence: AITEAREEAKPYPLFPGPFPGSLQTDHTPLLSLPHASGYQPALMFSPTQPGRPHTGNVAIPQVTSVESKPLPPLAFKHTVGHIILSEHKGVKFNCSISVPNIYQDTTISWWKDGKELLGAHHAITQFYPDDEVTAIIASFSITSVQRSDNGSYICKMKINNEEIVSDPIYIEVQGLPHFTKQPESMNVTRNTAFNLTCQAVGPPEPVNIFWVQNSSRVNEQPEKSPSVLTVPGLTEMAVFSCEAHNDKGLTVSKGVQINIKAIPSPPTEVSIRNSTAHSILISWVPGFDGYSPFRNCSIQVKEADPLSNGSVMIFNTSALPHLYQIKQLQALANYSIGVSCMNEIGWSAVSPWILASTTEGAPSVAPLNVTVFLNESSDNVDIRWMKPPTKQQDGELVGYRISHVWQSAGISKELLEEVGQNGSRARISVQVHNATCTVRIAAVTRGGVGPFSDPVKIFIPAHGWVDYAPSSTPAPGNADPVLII

[6] = biological target: T5, recombinant cynomolgus MerTK extracellular domain (cynomolgus, UniProt Q12866 21-505 (human entry)); test: as above
T5 construct: The entry starts with the native signal peptide; also called cynoMerTK; cyno MerTK ECD; not shown: tag
T5 chain: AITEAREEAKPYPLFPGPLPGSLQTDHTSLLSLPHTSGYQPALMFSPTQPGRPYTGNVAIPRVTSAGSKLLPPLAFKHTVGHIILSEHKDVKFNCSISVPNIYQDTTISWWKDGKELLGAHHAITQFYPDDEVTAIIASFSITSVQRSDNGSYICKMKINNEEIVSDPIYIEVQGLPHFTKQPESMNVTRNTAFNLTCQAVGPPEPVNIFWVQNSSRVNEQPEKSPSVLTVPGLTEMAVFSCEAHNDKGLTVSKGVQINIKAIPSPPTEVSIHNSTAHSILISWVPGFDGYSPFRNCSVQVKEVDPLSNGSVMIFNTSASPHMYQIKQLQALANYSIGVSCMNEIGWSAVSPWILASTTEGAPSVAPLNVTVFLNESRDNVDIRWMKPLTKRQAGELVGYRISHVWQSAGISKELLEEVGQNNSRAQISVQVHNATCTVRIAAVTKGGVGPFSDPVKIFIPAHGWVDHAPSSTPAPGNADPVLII

[7] = biological target: T3, human MerTK on M2c-differentiated human …; test: cell-based or functional assay; remark: listed apart in the source
[8] = biological target: T3, human MerTK on M2c-differentiated human …; test: cell-based or functional assay; remark: listed apart in the source
[9] = biological target: T1, human MerTK overexpressed on CHO cells …; test: FACS, Dylight650-conjugated antibody on CHO-huMerTK OE cells, MFI against Ab concentration
Text: as §1

[10] = biological target: T1, human MerTK overexpressed on CHO cells …; test: FACS on CHO-huMerTK OE cells; reference is monovalent MTK-33.11
Text: as §1

[11] = biological target: T3, human MerTK on M2c-differentiated human …; test: FACS on M2c-differentiated human macrophages; reference is monovalent MTK-33.11
Text: as §1

[12] = biological target: T2, recombinant murine MerTK extracellular …; test: SPR (Carterra LSA), antibody immobilised on an HC30 chip, MerTK ECD as analyte; estimate from a 1:1 fit
Experimental: Binding kinetics of monovalent anti-MerTK antibodies of the present disclosure to human, cyno, and murine MerTK were evaluated using a Carterra LSA instrument. […] A HC30 sensor chip (Carterra) was activated using the single channel flow cell with a 7-minute injection of a 1:1:1 mixture of 100 mM MES pH 5.5, 100 mM sulfo-NHS, 400 mM EDC (all reconstituted in MES pH 5.5; 100 μl of each mixed in vial immediately before running assay). After switching to the multi-channel array flow cell, the antibodies were injected over the activated chip in a 96-spot array for 15 minutes. A duplicate injection of the antibodies on a second block of the chip was spotted as before. The remaining unconjugated active groups on the chip were then blocked by injecting 1M Ethanolamine pH 8.5 (Carterra) for 7 minutes using the single channel flow cell.
After priming with running buffer (HBS-TE, Carterra) with 0.5 mg/ml BSA (Sigma), the immobilized anti-MerTK antibodies were tested for their ability to bind to several forms of recombinant MerTK extracellular domain, including that of human, cynomolgus, and mouse orthologs as described above. Estimates of affinity were generated by injecting each analyte over the entire antibody array using the single channel flow cell. […] Dissociation was followed for 300 seconds before regenerating after each injection with 2×30 seconds of 10 mM Glycine pH2.5. Three buffer blanks were run between each series (one species per series). After all concentrations of all three species of MerTK were injected, a duplicate set of injections was performed, so that each concentration for all three species was injected in widely spaced duplicates. Data were processed and analyzed using NextGenKIT high-throughput kinetics analysis software (Carterra).

B1: monovalent anti-MerTK antibody MTK-16.2 LALAPS (antibody, human IgG1, kappa, L234A L235A)
heavy: not shown
light: DIQMTQSPSSLSASVGDRVTITCRASQNVRTAVAWYQQKPGKAPKRLIYLASNRHTGVPSRFSGSGSGTEFTLTISNLQPEDFATYYCLQHWNYPLTFGGGTKLEIKRTVAAPSVFIFPPSDEQLKSGTASVVCLLNNFYPREAKVQWKVDNALQSGNSQESVTEQDSKDSTYSLSSTLTLSKADYEKHKVYACEVTHQGLSSPVTKSFNRGEC
chain: DKTHTCPPCPAPEAAGGPSVFLFPPKPKDTLMISRTPEVTCVVVDVSHEDPEVKFNWYVDGVEVHNAKTKPREEQYNSTYRVVSVLTVLHQDWLNGKEYKCKVSNKALPASIEKTISKAKGQPREPQVYTLPPSRDELTKNQVSLSCAVKGFYPSDIAVEWESNGQPENNYKTTPPVLDSDGSFFLVSKLTVDKSRWQQGNVFSCSVMHEALHNHYTQKSLSLSPGK
notes: One-armed antibody, human IgG1 LALAPS; Dylight650-conjugated in the FACS assay; also called MTK-16.2 monovalent LALAPS; MTK-16.2 monoarm
Kd [1]: 40.5 nM | binding result [2]: no binding | Kd [3]: 77.8 nM | Average pAKT IC50 (nM) in the presence of huGas6 [4]: 15.3 nM | Kd [5]: 50 nM | Kd [6]: 60 nM | Efferocytosis blocking Average IC50 [7]: 37.9 nM | Average fold change in pAKT activity in the absence of huGas6 [8]: 1.22 fold

B2: bivalent anti-MerTK antibody MTK-16.2 LALAPS (antibody, human IgG1, kappa, L234A L235A, V domains shown)
VH: QVQLVQSGSELKKPGASVKVSCKASGYTFTNHGMNWVRQAPGQGLEWMGWINTYTGEPTYADDFKGRFVFSLDTSVSTAYLQISSLKAEDTAVYYCARKGVTAARYFDYWGQGTLVTVSS
VL: DIQMTQSPSSLSASVGDRVTITCRASQNVRTAVAWYQQKPGKAPKRLIYLASNRHTGVPSRFSGSGSGTEFTLTISNLQPEDFATYYCLQHWNYPLTFGGGTKLEIKR
notes: Two full-length heavy chains and two full-length light chains, human IgG1 LALAPS; Dylight650-conjugated in the FACS assay; also called MTK-16.2 bivalent LALAPS; MTK-16.2 full IgG
Kd [1]: 42.5 nM | binding result [2]: no binding | Kd [3]: 51.9 nM | Average pAKT IC50 (nM) in the presence of huGas6 [4]: 3.22 nM | EC50 (read off the curve) [9]: ~20 nM | Kd [5]: 50 nM | Kd [6]: 60 nM | Efferocytosis blocking Average IC50 [7]: 0.436 nM | Average fold change in pAKT activity in the absence of huGas6 [8]: 1.57 fold

B3: bivalent anti-MerTK antibody MTK-33.11 LALAPS (antibody, human IgG1, kappa, L234A L235A, V domains shown)
VH: QVQLVQSGAEVKKPGASVKVSCKASGYTFTSYWMHWVRQAPGQGLEWIGVIDPSDNYINYNQKFQGRVTMTRDTSTSTVYMELSSLRSEDTAVYYCAREAWTRGYFDYWGQGTLVTVSS
VL: DIQMTQSPSSLSASVGDRVTITCQASRSVRNTVAWYQQKPGKAPKLLIYYASNRYTGVPSRFSGSGSGTDFTFTISSLQPEDIATYYCQQDYRSPFTFGQGTKLEIKR
notes: Two full-length heavy chains and two full-length light chains, human IgG1 LALAPS; Dylight650-conjugated in the FACS assay; also called MTK-33.11 bivalent LALAPS; MTK-33.11 full IgG
Kd [1]: 0.439 nM | fold higher affinity than monovalent MTK-33.11 [10]: ~10 fold | Kd [3]: 2 nM | Average pAKT IC50 (nM) in the presence of huGas6 [4]: 1.25 nM | EC50 (read off the curve) [9]: ~4 nM | fold higher affinity than monovalent MTK-33.11 [11]: ~5 fold | Kd [5]: 2 nM | Kd [12]: 50 nM | Kd [6]: 2 nM | Efferocytosis blocking Average IC50 [7]: 0.341 nM | Average fold change in pAKT activity in the absence of huGas6 [8]: 1.41 fold
